From the supplement of paper PMC5998384

Key:
HeLa Kyoto [1] = test: solubility change mitosis vs G1/S (difference of NP-40 vs SDS log2 ratios) (log2 ratio difference); higher = more soluble in mitosis
HeLa Kyoto [2] = test: solubility in G1/S (NP-40 vs SDS abundance) (log2 ratio); higher = more soluble; details: cell cycle stage: G1/S
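Throughout, for solubility change mitosis vs G1/S (difference of NP-40 vs SDS log2 ratios): synchronized HeLa Kyoto cells (double thymidine block for G1/S, nocodazole release for mitosis), protein amounts in NP-40 versus SDS lysates quantified by mass spectrometry, three biological replicates.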
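Throughout, for solubility in G1/S (NP-40 vs SDS abundance): HeLa Kyoto cells arrested at G1/S by double thymidine block, proteins quantified by TMT10plex mass spectrometry in mild NP-40 versus SDS extracts, three biological replicates.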

Row | Substance | solubility change mitosis (log2) (HeLa Kyoto [1]) | solubility in G1/S (log2) (HeLa Kyoto [2])
1 | MSKTFLRPKVSSTKVTDWVDPSFDDFLECSGVSTITATSLGVNNSSHRRKNGPSTLESSRFPARKRGNLSSLEQIYGLENSKEYLSENEPWVDKYKPETQHELAVHKKKIEEVETWLKAQVLERQPKQGGSILLITGPPGCGKTTTLKILSKEHGIQVQEWINPVLPDFQKDDFKGMFNTESSFHMFPYQSQIAVFKEFLLRATKYNKLQMLGDDLRTDKKIILVEDLPNQFYRDSHTLHEVLRKYVRIGRCPLIFIISDSLSGDNNQRLLFPKEIQEECSISNISFNPVAPTIMMKFLNRIVTIEANKNGGKITVPDKTSLELLCQGCSGDIRSAINSLQFSSSKGENNLRPRKKGMSLKSDAVLSKSKRRKKPDRVFENQEVQAIGGKDVSLFLFRALGKILYCKRASLTELDSPRLPSHLSEYERDTLLVEPEEVVEMSHMPGDLFNLYLHQNYIDFFMEIDDIVRASEFLSFADILSGDWNTRSLLREYSTSIATRGVMHSNKARGYAHCQGGGSSFRPLHKPQWFLINKKYRENCLAAKALFPDFCLPALCLQTQLLPYLALLTIPMRNQAQISFIQDIGRLPLKRHFGRLKMEALTDREHGMIDPDSGDEAQLNGGHSAEESLGEPTQATVPETWSLPLSQNSASELPASQPQPFSAQGDMEENIIIEDYESDGT [RAD17] | 0.000111 | -0.0641
2 | MASATAPAAAVPTLASPLEQLRHLAEELRLLLPRVRVGEAQETTEEFNREMFWRRLNEAAVTVSREATTLTIVFSQLPLPSPQETQKFCEQVHAAIKAFIAVYYLLPKDQGITLRKLVRGATLDIVDGMAQLMEVLSVTPTQSPENNDLISYNSVWVACQQMPQIPRDNKAAALLMLTKNVDFVKDAHEEMEQAVEECDPYSGLLNDTEENNSDNHNHEDDVLGFPSNQDLYWSEDDQELIIPCLALVRASKACLKKIRMLVAENGKKDQVAQLDDIVDISDEISPSVDDLALSIYPPMCHLTVRINSAKLVSVLKKALEITKASHVTPQPEDSWIPLLINAIDHCMNRIKELTQSELEL [CCNDBP1] | -0.176 | 0.509
3 | MTKKKRENLGVALEIDGLEEKLSQCRRDLEAVNSRLHSRELSPEARRSLEKEKNSLMNKASNYEKELKFLRQENRKNMLLSVAIFILLTLVYAYWTM [CCDC167] | 0.231 | 0.839
4 | SYNE1 | 0.198 | -0.526
5 | MGDAGSERSKAPSLPPRCPCGFWGSSKTMNLCSKCFADFQKKQPDDDSAPSTSNSQSDLFSEETTSDNNNTSITTPTLSPSQQPLPTELNVTSPSKEECGPCTDTAHVSLITPTKRSCGTDSQSENEASPVKRPRLLENTERSEETSRSKQKSRRRCFQCQTKLELVQQELGSCRCGYVFCMLHRLPEQHDCTFDHMGRGREEAIMKMVKLDRKVGRSCQRIGEGCS [ZFAND3] | -0.0341 | 0.216
6 | MAVAVGRPSNEELRNLSLSGHVGFDSLPDQLVNKSTSQGFCFNILCVGETGIGKSTLMDTLFNTKFESDPATHNEPGVRLKARSYELQESNVRLKLTIVDTVGFGDQINKDDSYKPIVEYIDAQFEAYLQEELKIKRSLFNYHDTRIHACLYFIAPTGHSLKSLDLVTMKKLDSKVNIIPIIAKADTIAKNELHKFKSKIMSELVSNGVQIYQFPTDEETVAEINATMSVHLPFAVVGSTEEVKIGNKMAKARQYPWGVVQVENENHCDFVKLREMLIRVNMEDLREQTHTRHYELYRRCKLEEMGFKDTDPDSKPFSLQETYEAKRNEFLGELQKKEEEMRQMFVMRVKEKEAELKEAEKELHEKFDLLKRTHQEEKKKVEDKKKELEEEVNNFQKKKAAAQLLQSQAQQSGAQQTKKDKDKKNASFT [SEPT11] | 0.12 | -0.0512
7 | MRRAELAGLKTMAWVPAESAVEELMPRLLPVEPCDLTEGFDPSVPPRTPQEYLRRVQIEAAQCPDVVVAQIDPKKLKRKQSVNISLSGCQPAPEGYSPTLQWQQQQVAQFSTVRQNVNKHRSHWKSQQLDSNVTMPKSEDEEGWKKFCLGEKLCADGAVGPATNESPGIDYVQIGFPPLLSIVSRMNQATVTSVLEYLSNWFGERDFTPELGRWLYALLACLEKPLLPEAHSLIRQLARRCSEVRLLVDSKDDERVPALNLLICLVSRYFDQRDLADEPS [GEMIN2] | 0.437 | 0.59
8 | MAEPSQAPTPAPAAQPRPLQSPAPAPTPTPAPSPASAPIPTPTPAPAPAPAAAPAGSTGTGGPGVGSGGAGSGGDPARPGLSQQQRASQRKAQVRGLPRAKKLEKLGVFSACKANETCKCNGWKNPKPPTAPRMDLQQPAANLSELCRSCEHPLADHVSHLENVSEDEINRLLGMVVDVENLFMSVHKEEDTDTKQVYFYLFKLLRKCILQMTRPVVEGSLGSPPFEKPNIEQGVLNFVQYKFSHLAPRERQTMFELSKMFLLCLNYWKLETPAQFRQRSQAEDVATYKVNYTRWLCYCHVPQSCDSLPRYETTHVFGRSLLRSIFTVTRRQLLEKFRVEKDKLVPEKRTLILTHFPKFLSMLEEEIYGANSPIWESGFTMPPSEGTQLVPRPASVSAAVVPSTPIFSPSMGGGSNSSLSLDSAGAEPMPGEKRTLPENLTLEDAKRLRVMGDIPMELVNEVMLTITDPAAMLGPETSLLSANAARDETARLEERRGIIEFHVIGNSLTPKANRRVLLWLVGLQNVFSHQLPRMPKEYIARLVFDPKHKTLALIKDGRVIGGICFRMFPTQGFTEIVFCAVTSNEQVKGYGTHLMNHLKEYHIKHNILYFLTYADEYAIGYFKKQGFSKDIKVPKSRYLGYIKDYEGATLMECELNPRIPYTELSHIIKKQKEIIKKLIERKQAQIRKVYPGLSCFKEGVRQIPVESVPGIRETGWKPLGKEKGKELKDPDQLYTTLKNLLAQIKSHPSAWPFMEPVKKSEAPDYYEVIRFPIDLKTMTERLRSRYYVTRKLFVADLQRVIANCREYNPPDSEYCRCASALEKFFYFKLKEGGLIDK [KAT2A] | -0.058 | 0.0904
9 | MAAGSDLLDEVFFNSEVDEKVVSDLVGSLESQLAASAAHHHHLAPRTPEVRAAAAGALGNHVVSGSPAGAAGAGPAAPAEGAPGAAPEPPPAGRARPGGGGPQRPGPPSPRRPLVPAGPAPPAAKLRPPPEGSAGSCAPVPAAAAVAAGPEPAPAGPAKPAGPAALAARAGPGPGPGPGPGPGPGPGKPAGPGAAQTLNGSAALLNSHHAAAPAVSLVNNGPAALLPLPKPAAPGTVIQTPPFVGAAAPPAPAAPSPPAAPAPAAPAAAPPPPPPAPATLARPPGHPAGPPTAAPAVPPPAAAQNGGSAGAAPAPAPAAGGPAGVSGQPGPGAAAAAPAPGVKAESPKRVVQAAPPAAQTLAASGPASTAASMVIGPTMQGALPSPAAVPPPAPGTPTGLPKGAAGAVTQSLSRTPTATTSGIRATLTPTVLAPRLPQPPQNPTNIQNFQLPPGMVLVRSENGQLLMIPQQALAQMQAQAHAQPQTTMAPRPATPTSAPPVQISTVQAPGTPIIARQVTPTTIIKQVSQAQTTVQPSATLQRSPGVQPQLVLGGAAQTASLGTATAVQTGTPQRTVPGATTTSSAATETMENVKKCKNFLSTLIKLASSGKQSTETAANVKELVQNLLDGKIEAEDFTSRLYRELNSSPQPYLVPFLKRSLPALRQLTPDSAAFIQQSQQQPPPPTSQATTALTAVVLSSSVQRTAGKTAATVTSALQPPVLSLTQPTQVGVGKQGQPTPLVIQQPPKPGALIRPPQVTLTQTPMVALRQPHNRIMLTTPQQIQLNPLQPVPVVKPAVLPGTKALSAVSAQAAAAQKNKLKEPGGGSFRDDDDINDVASMAGVNLSEESARILATNSELVGTLTRSCKDETFLLQAPLQRRILEIGKKHGITELHPDVVSYVSHATQQRLQNLVEKISETAQQKNFSYKDDDRYEQASDVRAQLKFFEQLDQIEKQRKDEQEREILMRAAKSRSRQEDPEQLRLKQKAKEMQQQELAQMRQRDANLTALAAIGPRKKRKVDCPGPGSGAEGSGPGSVVPGSSGVGTPRQFTRQRITRVNLRDLIFCLENERETSHSLLLYKAFLK [TAF4] | 0.0124 | 0.132
10 | MHQTLCLNPESLKMSACSDFVEHIWKPGSCKNCFCLRSDHQLVAGPPQPRAGSLPPPPRLPPRPENCRLEDEGVNSSPYSKPTIAVKPTMMSSEASDVWTEANLSAEVSQVIWRRAPGKLPLPKQEDAPVVYLGSFRGVQKPAGPSTSPDGNSRCPPAYTMVGLHNLEPRGERNIAFHPVSFPEEKAVHKEKPSFPYQDRPSTQESFRQKLAAFAGTTSGCHQGPGPLRESLPSEDDSDQRCSPSGDSEGGEYCSILDCCPGSPVAKAASQTAGSRGRHGGRDCSPTCWEQGKCSGPAEQEKRGPSFPKECCSQGPTAHPSCLGPKKLSLTSEAAISSDGLSCGSGSGSGSGASSPFVPHLESDYCSLMKEPAPEKQQDPGCPGVTPSRCLGLTGEPQPPAHPREATQPEPIYAESTKRKKAAPVPSKSQAKIEHAAAAQGQGQVCTGNAWAQKAASGWGRDSPDPTPQVSATITVMAAHPEEDHRTIYLSSPDSAVGVQWPRGPVSQNSEVGEEETSAGQGLSSRESHAHSASESKPKERPAIPPKLSKSSPVGSPVSPSAGGPPVSPLADLSDGSSGGSSIGPQPPSQGPADPAPSCRTNGVAISDPSRCPQPAASSASEQRRPRFQAGTWSRQCRIEEEEEVEQELLSHSWGRETKNGPTDHSNSTTWHRLHPTDGSSGQNSKVGTGMSKSASFAFEFPKDRSGIETFSPPPPPPKSRHLLKMNKSSSDLEKVSQGSAESLSPSFRGVHVSFTTGSTDSLASDSRTCSDGGPSSELAHSPTNSGKKLFAPVPFPSGSTEDVSPSGPQQPPPLPQKKIVSRAASSPDGFFWTQGSPKPGTASPKLNLSHSETNVHDESHFSYSLSPGNRHHPVFSSSDPLEKAFKGSGHWLPAAGLAGNRGGCGSPGLQCKGAPSASSSQLSVSSQASTGSTQLQLHGLLSNISSKEGTYAKLGGLYTQSLARLVAKCEDLFMGGQKKELHFNENNWSLFKLTCNKPCCDSGDAIYYCATCSEDPGSTYAVKICKAPEPKTVSYCSPSVPVHFNIQQDCGHFVASVPSSMLSSPDAPKDPVPALPTHPPAQEQDCVVVITREVPHQTASDFVRDSAASHQAEPEAYERRVCFLLLQLCNGLEHLKEHGIIHRDLCLENLLLVHCTLQAGPGPAPAPAPAPAPAAAAPPCSSAAPPAGGTLSPAAGPASPEGPREKQLPRLIISNFLKAKQKPGGTPNLQQKKSQARLAPEIVSASQYRKFDEFQTGILIYELLHQPNPFEVRAQLRERDYRQEDLPPLPALSLYSPGLQQLAHLLLEADPIKRIRIGEAKRVLQCLLWGPRRELVQQPGTSEEALCGTLHNWIDMKRALMMMKFAEKAVDRRRGVELEDWLCCQYLASAEPGALLQSLKLLQLL [SGK223] | -0.132 | -0.249
11 | MNRHLCVWLFRHPSLNGYLQCHIQLHSHQFRQIHLDTRLQVFRQNRNCILHLLSKNWSRRYCHQDTKMLWKHKALQKYMENLSKEYQTLEQCLQHIPVNEENRRSLNRRHAELAPLAAIYQEIQETEQAIEELESMCKSLNKQDEKQLQELALEERQTIDQKINMLYNELFQSLVPKEKYDKNDVILEVTAGRTTGGDICQQFTREIFDMYQNYSCYKHWQFELLNYTPADYGGLHHAAARISGDGVYKHLKYEGGIHRVQRIPEVGLSSRMQRIHTGTMSVIVLPQPDEVDVKLDPKDLRIDTFRAKGAGGQHVNKTDSAVRLVHIPTGLVVECQQERSQIKNKEIAFRVLRARLYQQIIEKDKRQQQSARKLQVGTRAQSERIRTYNFTQDRVSDHRIAYEVRDIKEFLCGGKGLDQLIQRLLQSADEEAIAELLDEHLKSAK [MTRF1] | -0.0209 | 0.228
12 | ANKRD11 | 0.268 | -0.497
